Measured values taken from patent US20160272683A1 (Novo Nordisk, published 2016).
Numbered stars: 1 amine (or outer) side, 2 acyl side, 3 side chain; on linkers, the order of the positions; unused ones are H or OH. * marks the point of attachment. C20 diacid = O=C(O)CCCCCCCCCCCCCCCCCCC(=O)*; C18 diacid = O=C(O)CCCCCCCCCCCCCCCCC(=O)*; γGlu = O=C(O)[C@H](CCC(=O)[*:2])N[*:1]

T1: human calcitonin receptor on BHK570/CRE-luc cells (human, UniProt P30988 25-474)
T1 sequence (looked up): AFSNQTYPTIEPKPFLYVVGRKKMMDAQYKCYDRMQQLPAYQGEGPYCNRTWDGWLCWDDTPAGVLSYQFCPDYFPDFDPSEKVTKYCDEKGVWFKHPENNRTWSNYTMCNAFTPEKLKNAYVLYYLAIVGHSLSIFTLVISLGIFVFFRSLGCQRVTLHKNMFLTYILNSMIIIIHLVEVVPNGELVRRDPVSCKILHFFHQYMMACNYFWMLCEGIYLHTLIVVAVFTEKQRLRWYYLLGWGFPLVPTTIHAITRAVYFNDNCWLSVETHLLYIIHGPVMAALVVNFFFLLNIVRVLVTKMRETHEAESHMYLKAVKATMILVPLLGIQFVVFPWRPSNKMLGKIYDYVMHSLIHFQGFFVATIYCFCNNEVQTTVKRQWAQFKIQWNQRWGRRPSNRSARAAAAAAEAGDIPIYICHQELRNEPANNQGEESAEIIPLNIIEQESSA

T2: human amylin 3(a) receptor (human calcitonin receptor co-expressed with RAMP-3) on BHK570/CRE-luc cells (human, UniProt P30988 25-474; O60896 24-148)
T2 sequence (looked up) 1: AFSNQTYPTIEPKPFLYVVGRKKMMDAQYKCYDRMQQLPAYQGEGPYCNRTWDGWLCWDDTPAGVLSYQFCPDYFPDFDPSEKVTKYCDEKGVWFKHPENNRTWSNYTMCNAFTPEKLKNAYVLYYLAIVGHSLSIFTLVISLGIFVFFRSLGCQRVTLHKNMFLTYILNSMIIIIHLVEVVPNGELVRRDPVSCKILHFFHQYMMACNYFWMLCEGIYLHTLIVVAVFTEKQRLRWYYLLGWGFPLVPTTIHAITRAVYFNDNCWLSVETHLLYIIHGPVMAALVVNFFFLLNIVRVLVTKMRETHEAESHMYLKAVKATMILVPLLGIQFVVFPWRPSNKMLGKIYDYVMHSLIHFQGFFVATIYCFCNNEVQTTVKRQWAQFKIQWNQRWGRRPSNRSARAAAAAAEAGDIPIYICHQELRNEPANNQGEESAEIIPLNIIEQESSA
T2 sequence (looked up) 2: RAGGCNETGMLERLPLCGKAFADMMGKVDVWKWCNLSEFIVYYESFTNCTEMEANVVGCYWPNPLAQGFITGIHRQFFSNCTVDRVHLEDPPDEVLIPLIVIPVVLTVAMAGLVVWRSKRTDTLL


Assays:
[1] = biological target: T1, human calcitonin receptor on …; assay: cell-based or functional assay
[2] = biological target: T2, human amylin 3(a) receptor (human …); assay: cell-based or functional assay

Binder	hCTR funct. EC50 (pM), tested with HSA [1] [pM]	hAmylin-R funct. EC50 (pM), tested with HSA [2] [pM]
{C20 diacid-γGlu}-AASELSTAALGRLSAELHELATYPRTETGSGSP-NH2 (SMILES CC(C)C[C@H](NC(=O)[C@H](C)NC(=O)[C@H](C)NC(=O)[C@@H](NC(=O)[C@H](CO)NC(=O)[C@H](CC(C)C)NC(=O)[C@H](CCC(=O)O)NC(=O)[C@H](CO)NC(=O)[C@H](C)NC(=O)[C@H](C)NC(=O)CC[C@H](NC(=O)CCCCCCCCCCCCCCCCCCC(=O)O)C(=O)O)[C@@H](C)O)C(=O)NCC(=O)N[C@@H](CCCNC(=N)N)C(=O)N[C@@H](CC(C)C)C(=O)N[C@@H](CO)C(=O)N[C@@H](C)C(=O)N[C@@H](CCC(=O)O)C(=O)N[C@@H](CC(C)C)C(=O)N[C@@H](Cc1c[nH]cn1)C(=O)N[C@@H](CCC(=O)O)C(=O)N[C@@H](CC(C)C)C(=O)N[C@@H](C)C(=O)N[C@H](C(=O)N[C@@H](Cc1ccc(O)cc1)C(=O)N1CCC[C@H]1C(=O)N[C@@H](CCCNC(=N)N)C(=O)N[C@H](C(=O)N[C@@H](CCC(=O)O)C(=O)N[C@H](C(=O)NCC(=O)N[C@@H](CO)C(=O)NCC(=O)N[C@@H](CO)C(=O)N1CCC[C@H]1C(N)=O)[C@@H](C)O)[C@@H](C)O)[C@@H](C)O) [[N-terminal(C20 diacid-gGlu), 1A, 23Y, 30S, 31G]mimylin]	51	82
{C20 diacid-γGlu}-ASELSTAALGRLSAELHELATLPRTETGSGSH-NH2 (SMILES CC(C)C[C@H](NC(=O)[C@H](C)NC(=O)[C@H](C)NC(=O)[C@@H](NC(=O)[C@H](CO)NC(=O)[C@H](CC(C)C)NC(=O)[C@H](CCC(=O)O)NC(=O)[C@H](CO)NC(=O)[C@H](C)NC(=O)CC[C@H](NC(=O)CCCCCCCCCCCCCCCCCCC(=O)O)C(=O)O)[C@@H](C)O)C(=O)NCC(=O)N[C@@H](CCCNC(=N)N)C(=O)N[C@@H](CC(C)C)C(=O)N[C@@H](CO)C(=O)N[C@@H](C)C(=O)N[C@@H](CCC(=O)O)C(=O)N[C@@H](CC(C)C)C(=O)N[C@@H](Cc1c[nH]cn1)C(=O)N[C@@H](CCC(=O)O)C(=O)N[C@@H](CC(C)C)C(=O)N[C@@H](C)C(=O)N[C@H](C(=O)N[C@@H](CC(C)C)C(=O)N1CCC[C@H]1C(=O)N[C@@H](CCCNC(=N)N)C(=O)N[C@H](C(=O)N[C@@H](CCC(=O)O)C(=O)N[C@H](C(=O)NCC(=O)N[C@@H](CO)C(=O)NCC(=O)N[C@@H](CO)C(=O)N[C@@H](Cc1c[nH]cn1)C(N)=O)[C@@H](C)O)[C@@H](C)O)[C@@H](C)O) [[N-terminal(C20 diacid-gGlu), des1, 30S, 31G, 33H]mimylin]	72	125
{C18 diacid-γGlu}-ASELSTAALGRLSAELHELATYPRTETGSGSP-NH2 (SMILES CC(C)C[C@H](NC(=O)[C@H](C)NC(=O)[C@H](C)NC(=O)[C@@H](NC(=O)[C@H](CO)NC(=O)[C@H](CC(C)C)NC(=O)[C@H](CCC(=O)O)NC(=O)[C@H](CO)NC(=O)[C@H](C)NC(=O)CC[C@H](NC(=O)CCCCCCCCCCCCCCCCC(=O)O)C(=O)O)[C@@H](C)O)C(=O)NCC(=O)N[C@@H](CCCNC(=N)N)C(=O)N[C@@H](CC(C)C)C(=O)N[C@@H](CO)C(=O)N[C@@H](C)C(=O)N[C@@H](CCC(=O)O)C(=O)N[C@@H](CC(C)C)C(=O)N[C@@H](Cc1c[nH]cn1)C(=O)N[C@@H](CCC(=O)O)C(=O)N[C@@H](CC(C)C)C(=O)N[C@@H](C)C(=O)N[C@H](C(=O)N[C@@H](Cc1ccc(O)cc1)C(=O)N1CCC[C@H]1C(=O)N[C@@H](CCCNC(=N)N)C(=O)N[C@H](C(=O)N[C@@H](CCC(=O)O)C(=O)N[C@H](C(=O)NCC(=O)N[C@@H](CO)C(=O)NCC(=O)N[C@@H](CO)C(=O)N1CCC[C@H]1C(N)=O)[C@@H](C)O)[C@@H](C)O)[C@@H](C)O) [[N-terminal(C18 diacid-gGlu), des1, 23Y, 30S, 31G]mimylin]	15	24
{C20 diacid-γGlu}-ASELSTAALGRLSAELHELATLPRTETGSGSS-NH2 (SMILES CC(C)C[C@H](NC(=O)[C@H](C)NC(=O)[C@H](C)NC(=O)[C@@H](NC(=O)[C@H](CO)NC(=O)[C@H](CC(C)C)NC(=O)[C@H](CCC(=O)O)NC(=O)[C@H](CO)NC(=O)[C@H](C)NC(=O)CC[C@H](NC(=O)CCCCCCCCCCCCCCCCCCC(=O)O)C(=O)O)[C@@H](C)O)C(=O)NCC(=O)N[C@@H](CCCNC(=N)N)C(=O)N[C@@H](CC(C)C)C(=O)N[C@@H](CO)C(=O)N[C@@H](C)C(=O)N[C@@H](CCC(=O)O)C(=O)N[C@@H](CC(C)C)C(=O)N[C@@H](Cc1c[nH]cn1)C(=O)N[C@@H](CCC(=O)O)C(=O)N[C@@H](CC(C)C)C(=O)N[C@@H](C)C(=O)N[C@H](C(=O)N[C@@H](CC(C)C)C(=O)N1CCC[C@H]1C(=O)N[C@@H](CCCNC(=N)N)C(=O)N[C@H](C(=O)N[C@@H](CCC(=O)O)C(=O)N[C@H](C(=O)NCC(=O)N[C@@H](CO)C(=O)NCC(=O)N[C@@H](CO)C(=O)N[C@@H](CO)C(N)=O)[C@@H](C)O)[C@@H](C)O)[C@@H](C)O) [[N-terminal(C20 diacid-gGlu), des1, 30S, 31G, 33S]mimylin]	154	328

Results, then the binder that gave them:

hCTR funct. EC50 (pM), tested with HSA [1] [pM]	hAmylin-R funct. EC50 (pM), tested with HSA [2] [pM]	Binder
73	94	{C20 diacid-γGlu}-ASELSTAALGRLSAELHELATLPRTETGSGSF-NH2 (SMILES CC(C)C[C@H](NC(=O)[C@H](C)NC(=O)[C@H](C)NC(=O)[C@@H](NC(=O)[C@H](CO)NC(=O)[C@H](CC(C)C)NC(=O)[C@H](CCC(=O)O)NC(=O)[C@H](CO)NC(=O)[C@H](C)NC(=O)CC[C@H](NC(=O)CCCCCCCCCCCCCCCCCCC(=O)O)C(=O)O)[C@@H](C)O)C(=O)NCC(=O)N[C@@H](CCCNC(=N)N)C(=O)N[C@@H](CC(C)C)C(=O)N[C@@H](CO)C(=O)N[C@@H](C)C(=O)N[C@@H](CCC(=O)O)C(=O)N[C@@H](CC(C)C)C(=O)N[C@@H](Cc1c[nH]cn1)C(=O)N[C@@H](CCC(=O)O)C(=O)N[C@@H](CC(C)C)C(=O)N[C@@H](C)C(=O)N[C@H](C(=O)N[C@@H](CC(C)C)C(=O)N1CCC[C@H]1C(=O)N[C@@H](CCCNC(=N)N)C(=O)N[C@H](C(=O)N[C@@H](CCC(=O)O)C(=O)N[C@H](C(=O)NCC(=O)N[C@@H](CO)C(=O)NCC(=O)N[C@@H](CO)C(=O)N[C@@H](Cc1ccccc1)C(N)=O)[C@@H](C)O)[C@@H](C)O)[C@@H](C)O) [[N-terminal(C20 diacid-gGlu), des1, 30S, 31G, 33F]mimylin]
78	168	{C20 diacid-γGlu}-ASELSTAALGRLSAELHELATLPRTETGSGSL-NH2 (SMILES CC(C)C[C@H](NC(=O)[C@H](CO)NC(=O)CNC(=O)[C@H](CO)NC(=O)CNC(=O)[C@@H](NC(=O)[C@H](CCC(=O)O)NC(=O)[C@@H](NC(=O)[C@H](CCCNC(=N)N)NC(=O)[C@@H]1CCCN1C(=O)[C@H](CC(C)C)NC(=O)[C@@H](NC(=O)[C@H](C)NC(=O)[C@H](CC(C)C)NC(=O)[C@H](CCC(=O)O)NC(=O)[C@H](Cc1c[nH]cn1)NC(=O)[C@H](CC(C)C)NC(=O)[C@H](CCC(=O)O)NC(=O)[C@H](C)NC(=O)[C@H](CO)NC(=O)[C@H](CC(C)C)NC(=O)[C@H](CCCNC(=N)N)NC(=O)CNC(=O)[C@H](CC(C)C)NC(=O)[C@H](C)NC(=O)[C@H](C)NC(=O)[C@@H](NC(=O)[C@H](CO)NC(=O)[C@H](CC(C)C)NC(=O)[C@H](CCC(=O)O)NC(=O)[C@H](CO)NC(=O)[C@H](C)NC(=O)CC[C@H](NC(=O)CCCCCCCCCCCCCCCCCCC(=O)O)C(=O)O)[C@@H](C)O)[C@@H](C)O)[C@@H](C)O)[C@@H](C)O)C(N)=O) [[N-terminal(C20 diacid-gGlu), des1, 30S, 31G, 33L]mimylin]
49	62	{C20 diacid-γGlu}-ASELSTAALGRLSAELHELATLPRTETGSGSY-NH2 (SMILES CC(C)C[C@H](NC(=O)[C@H](C)NC(=O)[C@H](C)NC(=O)[C@@H](NC(=O)[C@H](CO)NC(=O)[C@H](CC(C)C)NC(=O)[C@H](CCC(=O)O)NC(=O)[C@H](CO)NC(=O)[C@H](C)NC(=O)CC[C@H](NC(=O)CCCCCCCCCCCCCCCCCCC(=O)O)C(=O)O)[C@@H](C)O)C(=O)NCC(=O)N[C@@H](CCCNC(=N)N)C(=O)N[C@@H](CC(C)C)C(=O)N[C@@H](CO)C(=O)N[C@@H](C)C(=O)N[C@@H](CCC(=O)O)C(=O)N[C@@H](CC(C)C)C(=O)N[C@@H](Cc1c[nH]cn1)C(=O)N[C@@H](CCC(=O)O)C(=O)N[C@@H](CC(C)C)C(=O)N[C@@H](C)C(=O)N[C@H](C(=O)N[C@@H](CC(C)C)C(=O)N1CCC[C@H]1C(=O)N[C@@H](CCCNC(=N)N)C(=O)N[C@H](C(=O)N[C@@H](CCC(=O)O)C(=O)N[C@H](C(=O)NCC(=O)N[C@@H](CO)C(=O)NCC(=O)N[C@@H](CO)C(=O)N[C@@H](Cc1ccc(O)cc1)C(N)=O)[C@@H](C)O)[C@@H](C)O)[C@@H](C)O) [[N-terminal(C20 diacid-gGlu), des1, 30S, 31G, 33Y]mimylin]
